Results as given in the supplement of paper PMC10567573.

B1: KCTD10 (parent)
chain: SSKEEQKLIATSNKPAVKLLYNRS

Variants of: B1
Test: protein stability index of a GFP-peptide fusion (GPS, HEK-293T) (PSI 1-6); higher = more stable
Conditions: c terminus: a fixed tail appended
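Note: lentivirally expressed fusions sorted by FACS into six bins by GFP to DsRed ratio, PSI derived from sequencing read proportions per bin multiplied by bin number.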

Row | Variant | protein stability index
1 | A10Q | 4.27
2 | A10R | 3.88
3 | A10N | 4.41
4 | A10I | 2.74
5 | A10D | 3.78
6 | A10W | 3.51
7 | A10H | 4.2
8 | A10M | 3.51
9 | A10V | 3.45
10 | A10L | 3.73
11 | A10E | 4.51
12 | A10K | 4.15
13 | A10F | 3.44
14 | A10P | 3.78
15 | A10C | 3.88
16 | A10G | 3.86
17 | A10Y | 3.65
18 | A10S | 4.01
19 | A10T | 4.39
20 | S12T | 4.34
21 | S12C | 3.81
22 | S12P | 4.29
23 | S12H | 3.46
24 | S12R | 4.02

Row | Variant | protein stability index
25 | S12G | 3.89
26 | S12V | 3.88
27 | S12K | 4.27
28 | S12L | 3.72
29 | S12E | 4.42
30 | S12N | 4.02
31 | S12A | 3.89
32 | S12F | 3.34
33 | S12I | 3.92
34 | S12W | 2.79
35 | S12M | 3.42
36 | S12D | 4.52
37 | S12Y | 3.38
38 | S12Q | 4.26
39 | I9H | 3.81
40 | I9N | 4.36
41 | I9F | 4.08
42 | I9C | 3.91
43 | I9W | 3.93
44 | I9V | 4.34
45 | I9A | 3.97
46 | I9G | 4.54
47 | I9R | 4.33
48 | I9S | 4.34

Row | Variant | protein stability index
49 | I9E | 4.72
50 | I9L | 3.98
51 | I9P | 4.69
52 | I9D | 4.74
53 | I9Q | 4.31
54 | I9K | 4.39
55 | I9T | 4.18
56 | I9M | 3.96
57 | I9Y | 4.41
58 | N13T | 4
59 | N13G | 4.28
60 | N13R | 3.33
61 | N13P | 4.12
62 | N13L | 3.3
63 | N13K | 3.96
64 | N13F | 3.16
65 | N13Q | 2.95
66 | N13V | 3.75
67 | N13M | 3.69
68 | N13E | 4.54
69 | N13W | 2.67
70 | N13I | 3.21
71 | N13H | 3.9
72 | N13A | 3.58

Row | Variant | protein stability index
73 | N13C | 2.31
74 | N13Y | 3.38
75 | N13S | 3.79
76 | N13D | 4.73
77 | A16Y | 3.56
78 | A16L | 3.54
79 | A16W | 2.94
80 | A16K | 4.33
81 | A16N | 4.19
82 | A16C | 3.74
83 | A16Q | 4.19
84 | A16R | 3.8
85 | A16V | 3.89
86 | A16S | 4.2
87 | A16P | 3.95
88 | A16M | 3.84
89 | A16I | 3.97
90 | A16T | 4.1
91 | A16G | 3.79
92 | A16F | 3.57
93 | A16D | 4.18
94 | A16H | 4.16
95 | A16E | 4.26
96 | K14L | 3.8

Row | Variant | protein stability index
97 | K14C | 3.73
98 | K14Y | 3.46
99 | K14P | 4.32
100 | K14A | 3.76
101 | K14H | 3.59
102 | K14S | 4.24
103 | K14Q | 4.28
104 | K14D | 4.57
105 | K14R | 4.2
106 | K14N | 3.96
107 | K14V | 3.96
108 | K14I | 3.66
109 | K14M | 3.76
110 | K14F | 3.39
111 | K14G | 4.03
112 | K14E | 4.39
113 | K14T | 4.04
114 | K14W | 2.63
115 | R23M | 3.35
116 | R23F | 3.29
117 | R23G | 3.75
118 | R23Q | 4.01
119 | R23L | 3.03
120 | R23A | 3.99

Row | Variant | protein stability index
121 | R23P | 4.21
122 | R23N | 4.21
123 | R23S | 4.13
124 | R23E | 4.63
125 | R23I | 3.37
126 | R23K | 4.29
127 | R23C | 3.76
128 | R23D | 4.71
129 | R23H | 3.85
130 | L20R | 4.46
131 | L20Q | 4.28
132 | L20H | 4.48
133 | L20W | 3.35
134 | L20D | 4.53
135 | L20A | 4.89
136 | L20Y | 3.82
137 | L20E | 3.98
138 | L20N | 4.37
139 | L20G | 4.73
140 | L20C | 3.79
141 | L20I | 4.6
142 | L20T | 4.72
143 | L20F | 3.95
144 | L20K | 4.53

Row | Variant | protein stability index
145 | L20V | 4.09
146 | L20P | 4.98
147 | L20M | 4.11
148 | L20S | 4.35
149 | V17A | 4.34
150 | V17R | 3.94
151 | V17Y | 3.51
152 | V17H | 4.35
153 | V17E | 4.15
154 | V17S | 4.3
155 | V17Q | 4.52
156 | V17G | 4.3
157 | V17F | 2.74
158 | V17I | 4.02
159 | V17C | 4.21
160 | V17M | 3.97
161 | V17L | 4.02
162 | V17W | 3.39
163 | V17T | 4.28
164 | V17N | 4.76
165 | V17P | 4.31
166 | V17D | 4.41
167 | V17K | 4.61
168 | Y21V | 3.67

Row | Variant | protein stability index
169 | Y21L | 4.06
170 | Y21G | 4.97
171 | Y21M | 4.18
172 | Y21Q | 4.46
173 | Y21N | 4.58
174 | Y21K | 4.68
175 | Y21I | 4.13
176 | Y21T | 4.54
177 | Y21W | 4.05
178 | Y21D | 4.93
179 | Y21E | 4.25
180 | Y21S | 4.33
181 | Y21C | 4.73
182 | Y21R | 4.42
183 | Y21F | 3.75
184 | Y21A | 4.33
185 | Y21H | 4.46
186 | Y21P | 4.07
187 | Q6T | 4.44
188 | Q6W | 2.79
189 | Q6L | 3.59
190 | Q6V | 3.6
191 | Q6N | 3.96
192 | Q6S | 3.86

Row | Variant | protein stability index
193 | Q6G | 3.8
194 | Q6M | 3.56
195 | Q6R | 3.93
196 | Q6I | 3.33
197 | Q6Y | 4.01
198 | Q6F | 3.15
199 | Q6K | 3.1
200 | Q6P | 4
201 | Q6H | 4.08
202 | K7M | 3.3
203 | K7F | 3.02
204 | K7I | 3.28
205 | K7T | 3.87
206 | K7Q | 4.25
207 | K7W | 2.87
208 | K7R | 3.92
209 | K7N | 4.32
210 | K7V | 3.68
211 | K7S | 3.55
212 | K7A | 4.1
213 | K7E | 4.4
214 | K7H | 3.85
215 | K7D | 4.49
216 | K7Y | 3.29

Row | Variant | protein stability index
217 | K7G | 4.45
218 | K7P | 4.39
219 | K7L | 3.21
220 | K7C | 3.86
221 | L19F | 4.12
222 | L19Q | 4.31
223 | L19A | 4.59
224 | L19S | 4.18
225 | L19N | 4.72
226 | L19I | 4.59
227 | L19W | 3.35
228 | L19R | 4.29
229 | L19C | 4.39
230 | L19E | 4.44
231 | L19T | 4.95
232 | L19D | 4.62
233 | L19Y | 4.56
234 | L19M | 4.59
235 | L19V | 4.25
236 | L19P | 4.94
237 | L19K | 4.69
238 | L19G | 4.13
239 | L19H | 4.41
240 | T11M | 3.6

Row | Variant | protein stability index
241 | T11E | 4.58
242 | T11L | 3.7
243 | T11R | 3.37
244 | T11Y | 3.6
245 | T11F | 3.63
246 | T11G | 4.16
247 | T11N | 3.92
248 | T11P | 3.97
249 | T11K | 4.19
250 | T11Q | 4.15
251 | T11I | 3.73
252 | T11C | 3.61
253 | T11D | 4.68
254 | T11S | 4.26
255 | T11H | 3.94
256 | T11A | 4.42
257 | T11V | 3.75
258 | T11W | 3.35
259 | L8I | 4.32
260 | L8T | 4.47
261 | L8A | 4.88
262 | L8V | 4.66
263 | L8S | 4.62
264 | L8K | 4.75

Row | Variant | protein stability index
265 | L8M | 4.43
266 | L8H | 4.46
267 | L8N | 4.31
268 | L8W | 3.79
269 | L8Y | 4.02
270 | L8R | 4.34
271 | L8D | 4.88
272 | L8C | 4.42
273 | L8P | 4.88
274 | L8E | 4.96
275 | L8G | 4.51
276 | L8F | 3.51
277 | L8Q | 4.6
278 | P15T | 3.73
279 | P15G | 4.24
280 | P15F | 3.1
281 | P15S | 4.07
282 | P15C | 2.96
283 | P15W | 2.19
284 | P15Q | 3.96
285 | P15D | 4.2
286 | P15R | 3.51
287 | P15L | 2.93
288 | P15E | 4.53

Row | Variant | protein stability index
289 | P15I | 2.81
290 | P15K | 3.39
291 | P15V | 3.13
292 | P15M | 3.47
293 | P15H | 3.86
294 | P15Y | 3.1
295 | P15A | 3.54
296 | P15N | 4.08
297 | N22R | 4.15
298 | N22D | 4.55
299 | N22H | 4.01
300 | N22S | 3.41
301 | N22Y | 2.96
302 | N22F | 3.17
303 | N22L | 3.14
304 | N22P | 3.83
305 | N22T | 4.12
306 | N22K | 4.16
307 | N22Q | 4.09
308 | N22C | 3.7
309 | N22E | 4.22
310 | N22G | 4
311 | N22I | 2.71
312 | N22W | 2.73

Row | Variant | protein stability index
313 | N22A | 3.84
314 | N22M | 2.92
315 | N22V | 3.54
316 | K18V | 3.13
317 | K18D | 4.25
318 | K18F | 2.83
319 | K18C | 4.21
320 | K18T | 3.74
321 | K18I | 2.34
322 | K18N | 4.26
323 | K18A | 4.05
324 | K18S | 4.39
325 | K18H | 3.89
326 | K18R | 4.33
327 | K18M | 3.45
328 | K18E | 4.34
329 | K18L | 3.25
330 | K18G | 4.02
331 | K18W | 2.4
332 | K18P | 4.25
333 | K18Y | 3.03
334 | K18Q | 4.39
